The target of the assay is PL6S* (PvuII-L6-I-SceI* fusion enzyme: wt PvuII fused via linker L6 to I-SceIΔC9,D44N,D145A) (UniProt P03882). The experiment in a line: AUC.

“PL6S* (PvuII-L6-I-SceI* fusion enzyme: wt PvuII fused via linker L6 to I-SceIΔC9,D44N,D145A) (from UniProt P03882 1-226)”: the stoichiometry N (in general, a count of units in the complex or per binding partner) is 2.

The record behind these values is PMC3258161.
